From the supplement of paper PMC10567573

B1: KCNA4 (parent)
chain: YQLGEEALLKFREDEGFVREEEDR

Variants of: B1
Assay: protein stability index of a GFP-peptide fusion (GPS, HEK-293T) (PSI 1-6); higher = more stable
Details: c terminus: a fixed tail appended
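Also: lentivirally expressed fusions sorted by FACS into six bins by GFP to DsRed ratio, PSI derived from sequencing read proportions per bin multiplied by bin number.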

Variant	protein stability index
YQLGEEALLKFREDEGFVREEHDR	4.37
YQLGEEALLKFREDEGFVREETDR	4.11
YQLGEEALLKFREDEGFVREELDR	3.99
YQLGEEALLKFREDEGFSREEEDR	4.32
YQLGEEALLKFREDEGFYREEEDR	4.63
YQLGEEALLKFREDEGFFREEEDR	4.36
YQLGEEALLKFREDEGFMREEEDR	4.58
YQLGEEALLKFREDEGFKREEEDR	4.13
YQLGEEALLKFREDEGFPREEEDR	4.63
YQLGEEALLKFREDEGFIREEEDR	4.5
YQLGEEALLKFREDEGFGREEEDR	4.43
YQLGEEALLKFREDEGFLREEEDR	4.44
YQLGEEALLKFREDEGFRREEEDR	4.04
YQLGEEALLKFREDEGFWREEEDR	3.94
YQLGEEALLKFREDEGFHREEEDR	4.36
YQLGEEALLKFREDEGFNREEEDR	4.82
YQLGEEALLKFREDEGFQREEEDR	4.78
YQLGEEALLKFREDEGFTREEEDR	4.54
YQLGEEALLKFREDEGFVREEESR	4.62
YQLGEEALLKFREDEGFVREEEMR	3.76
YQLGEEALLKFREDEGFVREEEVR	3.7
YQLGEEALLKFREDEGFVREEEHR	3.94
YQLGEEALLKFREDEGFVREEECR	4.48
YQLGEEALLKFREDEGFVREEEKR	4.45

Variant	protein stability index
YQLGEEALLKFREDEGFVREEEFR	4.14
YQLGEEALLKFREDEGFVREEERR	4.39
YQLGEEALLKFREDEGFVREEELR	3.97
YQLGEEALLKFREDEGFVREEEGR	3.88
YQLGEEALLKFREDEGFVREEEYR	4.46
YQLGEEALLKFREDEGFVREEEPR	3.82
YQLGEEALLKFREDEGFVREEEER	4.75
YQLGEEALLKFREDEGFVREEEWR	3.51
YQLGEEALLKFREDEGFVREEEAR	4.28
YQLGEEALLKFREDEGFVREEEQR	4.04
YQLGEEALLKFREDEGFVREEEIR	3.88
YQLGEEALLKFREDEGFVREEETR	4.11
YQLGEEALLKFREDEGFVREEENR	4.05
YQLGEEALLKFREDEGFVVEEEDR	4.59
YQLGEEALLKFREDEGFVLEEEDR	4.46
YQLGEEALLKFREDEGFVTEEEDR	4.65
YQLGEEALLKFREDEGFVFEEEDR	4.87
YQLGEEALLKFREDEGFVQEEEDR	4.42
YQLGEEALLKFREDEGFVCEEEDR	4.91
YQLGEEALLKFREDEGFVKEEEDR	4.05
YQLGEEALLKFREDEGFVMEEEDR	4.62
YQLGEEALLKFREDEGFVYEEEDR	4.51
YQLGEEALLKFREDEGFVWEEEDR	4.4
YQLGEEALLKFREDEGFVPEEEDR	4.62

Variant	protein stability index
YQLGEEALLKFREDEGFVSEEEDR	4.22
YQLGEEALLKFREDEGFVGEEEDR	4.85
YQLGEEALLKFREDEGFVHEEEDR	4.77
YQLGEEALLKFREDEGFVIEEEDR	4.36
YQLGEEALLKFREDEGFVDEEEDR	4.76
YQLGEEALLKFREDEGFVEEEEDR	4.91
YQLGEEALLKFREDEGFVAEEEDR	4.91
YQLGEEALLKFREDEGFVNEEEDR	4.47
YQLGEEALLKFREDEGFVREEEDY	4.42
YQLGEEALLKFREDEGFVREEEDW	4.53
YQLGEEALLKFREDEGFVREEEDS	4.65
YQLGEEALLKFREDEGFVREEEDC	4.21
YQLGEEALLKFREDEGFVREEEDN	4.72
YQLGEEALLKFREDEGFVREEEDP	5.16
YQLGEEALLKFREDEGFVREEEDV	4.73
YQLGEEALLKFREDEGFVREEEDI	4.6
YQLGEEALLKFREDEGFVREEEDH	4.83
YQLGEEALLKFREDEGFVREEEDM	4.88
YQLGEEALLKFREDEGFVREEEDT	4.71
YQLGEEALLKFREDEGFVREEEDK	4.66
YQLGEEALLKFREDEGFVREEEDA	4.69
YQLGEEALLKFREDEGFVREEEDF	4.27
YQLGEEALLKFREDEGFVREEEDE	5.1
YQLGEEALLKFREDEGFVREEEDG	4.79

Variant	protein stability index
YQLGEEALLKFREDEGFVREEEDL	4.54
YQLGEEALLKFREDEGFVREEEDQ	4.71
YQLGEEALLKFREDEGFVREEEDD	4.71
YQLGEEALLKFREDEGFVRPEEDR	4.3
YQLGEEALLKFREDEGFVRVEEDR	4.14
YQLGEEALLKFREDEGFVRHEEDR	4.49
YQLGEEALLKFREDEGFVRLEEDR	3.9
YQLGEEALLKFREDEGFVRFEEDR	3.64
YQLGEEALLKFREDEGFVRSEEDR	4.45
YQLGEEALLKFREDEGFVRTEEDR	4.56
YQLGEEALLKFREDEGFVRKEEDR	4.13
YQLGEEALLKFREDEGFVRMEEDR	4.06
YQLGEEALLKFREDEGFVRDEEDR	4.38
YQLGEEALLKFREDEGFVRYEEDR	3.71
YQLGEEALLKFREDEGFVRGEEDR	3.93
YQLGEEALLKFREDEGFVRREEDR	4.1
YQLGEEALLKFREDEGFVRNEEDR	4.61
YQLGEEALLKFREDEGFVRCEEDR	4.05
YQLGEEALLKFREDEGFVRIEEDR	3.4
YQLGEEALLKFREDEGFVRQEEDR	4.44
YQLGEEALLKFREDEGFVRAEEDR	3.63
YQLGEEALLKFREDEGFVRWEEDR	3.56
